{
  "source": "patent US20030113828",
  "target": "integrin αIIbβ3 (wild type) (UniProt P08514)",
  "data": [
    {"substance": "Syk truncation mutant (residues 1-330)", "values": [
      {"measurement": "adhesion dependent phosphorylation of Vav1", "result": "Over expression of Syk(1-330) also inhibited adhesion dependent phosphorylation of Vav1"}
    ]}
  ]
}
